Measurements taken from the DeepSol protein solubility set.

Test: soluble on expression in E. coli; label from the status in PepcDB or PDB records
With “MESIKVVIVGGGQAGIAMGYYLVKEKVPFMILDANEQVGDSWRNRYDSLVLFTPRTYSQLPGFPMDGAPNGFPTKDEMASYLQQYANHFNLPMRHHTKVDRVTRQQNGRFHLKTTNGWIEAEKVVIATGAFQKPYLPPVLDSANNEMSQVHSSAYRNPAQIPGKSVLVVGGGNSGAQIAVELAKERNVTMAISHPFRFLPLKLLNKSMFSWLEWGGLLYAGIDTTRGRWFKKQKDPIFGKELKSLIKKGQIHLKPRVMNVQGKEVEFADHSRLSFDRIIWSTGFSPSYEWIDIDGVIATNGWPIHNRGITNIRGLYFLGLPWQYQRGSALVCGVGRDAEYLVPFIKHGDK” the “soluble on expression in E. coli” value was “not soluble”. In the case of “MESLQNHFLIAMPSLDDTFFERTVIYLCEHDEKGAMGLVINKPLGIEVNSLLEQMDLPTEQVSADLAMGSQVLMGGPVSQDRGFVLHTSQPYWANSTELGSGLMLTTSRDVLTAIGSKRSPDKFLVALGYAGWSKNQLEQELADNSWLTIPADHALLFDINHEDRWQQASRSLGFEAWQLSTQAGHALEHHHHHH”, the “soluble on expression in E. coli” value is reported as “soluble”. In the case of “MESSIKVGISSCVLGERVRFDSGHKVSNFVTKELSNYFDFVSVCPEVGVGMPVPRPTIRLISNEERIALVETKNPDNDHTDNMLTYSANKVDELQNEQLCGYIVCAKSPTCGMERVKVYSKNNAAKEGVGLYTKTLMEKMPWLPVEEDGRLNDPVLKENFITRIYCLNDFYESMAGEPTRGKIIDFHSRYKLTLMAHHPESYRSLGRLVADVASYEIDEFYREYRLGLMTALSNRASRKNNTNVLMHLQGYFKRSLNKDEKEELATVIQDYRTGTLPLLAPLTLIKHYLNAYPDEYLQRQKFLEPHPQEMRLRYGL”, the “soluble on expression in E. coli” value is reported as “not soluble”. For “MESVAAESAPAPENEHSQETPESNSSVYTTFMKSHRCYDLIPTSSKLVVFDTSLQVKKAFFALVTNGVRAAPLWDSKKQSFVGMLTITDFINILHRYYKSALVQIYELEEHKIETWREVYLQDSFKPLVCISPNASLFDAVSSLIRNKIHRLPVIDPESGNTLYILTHKRILKFLKLFITEFPKPEFMSKSLEELQIGTYANIAMVRTTTPVYVALGIFVQHRVSALPVVDEKGRVVDIYSKFDVINLAAEKTYNNLDVSVTKALQHRSHYFEGVLKCYLHETLEAIINRLVEAEVHRLVVVDEHDVVKGIVSLSDILQALVLTGGEKKP”, the “soluble on expression in E. coli” value was “soluble”. In the case of “METAWSNILNYKNVSDRYILTEKDKKGAFTRQYFEVYEARLKELKPRILENAEREIGKGKFTHSQLSDAKQDEEIFVVGVIVKRIAARPSILKSLLNEDKVAYDDYEEDAEEDEVKRYAGSIEDRIELESDKQTVRLEGNISMDECATGCCVGVLGKLGKEGVFHVNRLVWPSVKVPKKVAVDGTIAFVSGLDLTGDLEDDRLTISGLEFMADWMNVQVGNENQCPPIDRLVVIGPLVETKSNGCDVQSVVRTLTLSRAEKHSSTASLITVDKIINSIAEKPLVNTVDVTPGVGDPCSSMWPLPPIHRVCLPRCGMSDKKVNLVTNPYEFEVNGLRVMTMSGENVSELLRTSLKWTGADAIENIIKWQHVAPNCPDTLDAFPVAERDPLIMDITPHVIICGNQPHAEFRHIPIDGSNCLVVCLPKFSKTRVACFLNLSDLSLKWQNFDHQF”, the “soluble on expression in E. coli” value is reported as “not soluble”. For “METDPDYSMVLLTENFPPYNMAINGKNFAQEDNIDGIAVDIVREMFKRAGIKYSLTLRFPWDRIYKLALEKPGYGVFVTARLAEREDKFKWVGPIGPDDWVLLAKGDSPITLGSLDEAKKYRIGAYKGDAIAEFLGKNGFEADLALRDQENAQKLVKGQIDLWASGDPAGRYLAKQEGVTGLKTVLRFNSDQLYLALNRETPDEVVQKLQAALDGMRKEGFVEDILNSYLLEHHHHHH”, the “soluble on expression in E. coli” value was “soluble”. With “METEICEQLGDLHLDKEAILLRAEQIEQDIKARKYSVIPPLSDEEQNLLDAEIAKRAAPPPGVPDAADFPLHDIVKELGLDKPVDGTDPEFYEELKAKDANTVYKNMKDVPDSIAAKYLPDLARRFVEFERRVKRVERMLWALPREDRSLEEDRFEILTELLDKSCQGLEIWEEHCERKIPLGHRCVLEGELIHLITSKFDLIDKICGEFDKLKNKRSEVNDERDMLRYEIRHCDMIFTEIHEKFLKSYLEMDW” the “soluble on expression in E. coli” value was “not soluble”.
